Assay results taken from patent US20200207819A1 (SPIBER TECHNOLOGIES, published 2020).

T1: NTwt (wildtype N-terminal (NT) fragment of Euprosthenops australis major ampullate spidroin 1) (Euprosthenops australis)
T1 chain: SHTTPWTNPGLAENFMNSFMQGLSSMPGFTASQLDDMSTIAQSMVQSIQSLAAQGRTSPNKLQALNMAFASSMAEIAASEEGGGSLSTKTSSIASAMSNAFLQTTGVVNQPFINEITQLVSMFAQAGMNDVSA

B1: NTwt (wildtype N-terminal (NT) fragment of Euprosthenops australis major ampullate spidroin 1) (protein)
chain: SHTTPWTNPGLAENFMNSFMQGLSSMPGFTASQLDDMSTIAQSMVQSIQSLAAQGRTSPNKLQALNMAFASSMAEIAASEEGGGSLSTKTSSIASAMSNAFLQTTGVVNQPFINEITQLVSMFAQAGMNDVSA
B2: NTD40K/K65D (charge-reversed double mutant of the NT fragment) (other)
chain: SHTTPWTNPGLAENFMNSFMQGLSSMPGFTASQLDKMSTIAQSMVQSIQSLAAQGRTSPNDLQALNMAFASSMAEIAASEEGGGSLSTKTSSIASAMSNAFLQTTGVVNQPFINEITQLVSMFAQAGMNDVSA
notes: Expressed in E. coli BL21 (DE3); also called charge-reversed NT mutant; NT mutant

What was measured:
[1] = molecular target: T1, NTwt (wildtype N-terminal (NT) fragment …); assay: tryptophan fluorescence ratio 339/351 nm vs pH, 5 µM protein in 20 mM HEPES/20 mM MES; homodimerization; settings: remark: other sources report otherwise
[2] = molecular target: the molecule itself; assay: tryptophan fluorescence ratio 339/351 nm vs pH (self-association / dimerization)
Experimental: Fluorescence emission spectra for NT_{D40K/K65D} (SEQ ID NO: 2) and NTwt (SEQ ID NO: 11), respectively, were measured on a spectrofluorometer (Tecan Safire 2) using Costar® black polystyrene assay plates with 96 flat bottom wells. The proteins were diluted to a concentration of 5 μM in 20 mM HEPES/20 mM MES adjusted to pH 5.6-8.0 in steps of 0.4 pH units. After exciting the samples at 280 nm (5 nm bandwidth), emission spectra were recorded in 1 nm steps between 300-400 nm (10 nm bandwidth). The tryptophan fluorescence ratio was calculated from the intensities at 339 nm and 351 nm and plotted as a function of pH. […]
The pH-dependent monomer-dimer equilibrium of NT can be monitored through the fluorescence shift of a single tryptophan (Trp) residue that becomes more exposed in the dimer. FIG. 2 is a graph illustrating the monomer-dimer equilibrium measured with Trp fluorescence. Trp fluorescence spectra between 300 and 400 nm were measured in 20 mM HEPES/20 mM MES buffer and the ratio at 339/351 nm (wavelengths corresponding to monomer and dimer conformations, respectively) was calculated and plotted as a function of pH for NTwt (dotted line) and NT_{D40K/K65D} (filled line). The ratio of fluorescence at 339 and 351 nm as a function of pH gives a sigmoidal plot for NTwt with a pKa of dimerization at pH 6.5. […]

Binder	pKa of dimerization [1] [pH]	binding result [2]
B1	6.5	–
B2	–	no binding (tested: 5 µM protein, pH 5.6-8.0)
